Source: the supplement of paper PMC7877785
± gives the uncertainty stated by the source.

Assay: self-splicing fitness, log relative to wild type (ln ratio); higher = more splicing; Tetrahymena group I intron in knt gene, E. coli kanamycin selection, DiMSum; sequences stand for … in CUCUCU…GGAGGGAAAAGUUAUCAGGCAUGCACCUGGUAGCUAGUCUUUAAACCAAUAGAUUGCAUCGGUUUAAAAGGCAAGACCGUCAAAUUGCGGGAAAGGGGUCAACAGCCGUUCAGUACCAAGUCUCAGGGGAAACUUUGAGAUGGCCUUGCAAAGGGUAUGGUAAUAAGCUGACGGACAUGGUCCUAACCACGCAGCCAAGUCCUAAGUCAACAGAUCUUCUGUUGAUAUGGAUGCAGUUCACAGACUAAAUGUCGGUCGGGGAAGAUGUAUUCUUCUCAUAAGAUAUAGUCGGACCUCUCCUUAAUGGGAGCUAGCGGAUGAAGUGAUGCAACACUGGAGCCGCUGGGAACUAAUUUGUAUGCGAAAGUAUAUUGAUUAGUUUUGGAGUACUCGUGGUCG
How it was run: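 The eight P1ex-region nucleotides of an intron in the knt kanamycin-resistance gene on pET-22b(+) were all randomised and the library put into E. coli BL21(DE3). Six replicate transformations were grown overnight at 37°C or 30°C on LB agar with or without 25 μg/mL kanamycin, together with 100 μg/mL carbenicillin, 50 μM IPTG and 0.2% rhamnose. Colonies were pooled and amplicon-sequenced on an Illumina HiSeq 2500. Fitness from DiMSum is the error-weighted combination of wild-type-normalised replicate fold changes, kanamycin over none.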

Sequence | self-splicing fitness (ln) (30 °C) | self-splicing fitness (ln) (37 °C)
GGUGAGCAAUAUUACGAGCG | -0.194 ± 0.11 | 0.303 ± 0.14
GGUGAGCAAUAUUACGAUGA | -3.32 ± 0.29 | -2.29 ± 0.21
GGUGAGCAAUAUUACGAUGU | -2.19 ± 0.15 | -1.69 ± 0.23
GGUGAGCAAUAUUACGAUUG | -3.77 ± 0.39 | -1.79 ± 0.4
GGUGAGCAAUAUUACGCAGG | -3.7 ± 0.34 | -2.07 ± 0.41
GGUGAGCAAUAUUACGCGAG |  | -1.97 ± 0.18
GGUGAGCAAUAUUACGCGCG | -0.933 ± 0.087 | -0.502 ± 0.12
GGUGAGCAAUAUUACGCGGA | -2.35 ± 0.19 | -1.57 ± 0.15
GGUGAGCAAUAUUACGCUAU | -1.77 ± 0.32 | -2.94 ± 0.4
GGUGAGCAAUAUUACGGAGG | -1.6 ± 0.27 | 
GGUGAGCAAUAUUACGGAUC | -0.748 ± 0.076 | 0.263 ± 0.11
GGUGAGCAAUAUUACGGAUG | -3.73 ± 0.22 | -2.62 ± 0.22
GGUGAGCAAUAUUACGGCGU | -1.29 ± 0.14 | -0.494 ± 0.17
GGUGAGCAAUAUUACGGGAC | -3.63 ± 0.29 | -1.85 ± 0.19
GGUGAGCAAUAUUACGGGGA |  | -2.42 ± 0.28
GGUGAGCAAUAUUACGGUCG | -1.29 ± 0.077 | -0.612 ± 0.1
GGUGAGCAAUAUUACGGUUU | -2.12 ± 0.13 | -1.25 ± 0.18
GGUGAGCAAUAUUACGUGGU | -3.51 ± 0.47 | -2.36 ± 0.24
GGUGAGCAAUAUUACGUUGU | -4.18 ± 0.31 | -2.04 ± 0.25
GGUUAGCAAUAUUACGAAAA | -2.05 ± 0.41 | 0.949 ± 0.28
GGUUAGCAAUAUUACGACAG | -1.69 ± 0.2 | -0.85 ± 0.23
GGUUAGCAAUAUUACGACGG | -2.32 ± 0.17 | -1.33 ± 0.22
GGUUAGCAAUAUUACGACUU | -0.187 ± 0.12 | 1.17 ± 0.16
GGUUAGCAAUAUUACGAGAU |  | -1.66 ± 0.33
GGUUAGCAAUAUUACGAUGC | -0.237 ± 0.13 | -0.251 ± 0.16

Sequence | self-splicing fitness (ln) (30 °C) | self-splicing fitness (ln) (37 °C)
GGUUAGCAAUAUUACGCCUU | -1.48 ± 0.11 | -0.406 ± 0.14
GGUUAGCAAUAUUACGCGGC | -2.62 ± 0.29 | 
GGUUAGCAAUAUUACGCGUA | -0.642 ± 0.091 | -0.174 ± 0.083
GGUUAGCAAUAUUACGCUGU | -2.1 ± 0.15 | -0.41 ± 0.14
GGUUAGCAAUAUUACGGCAU | -0.0374 ± 0.082 | -0.0754 ± 0.096
GGUUAGCAAUAUUACGGGGU | -3.61 ± 0.4 | -0.0656 ± 0.17
GGUUAGCAAUAUUACGGUAA | -1.02 ± 0.15 | -0.716 ± 0.14
GGUUAGCAAUAUUACGGUCC | -1.77 ± 0.49 | 
GGUUAGCAAUAUUACGUACU | -1.22 ± 0.24 | -1.27 ± 0.32
GGUUAGCAAUAUUACGUCGC | -1.25 ± 0.24 | -0.982 ± 0.26
GGUUAGCAAUAUUACGUCUA | -0.569 ± 0.12 | -0.565 ± 0.093
GUAAAGCAAUAUUACGACCC | -1.28 ± 0.32 | -0.886 ± 0.41
GUAAAGCAAUAUUACGAGAC | -2.46 ± 0.22 | -1.08 ± 0.29
GUAAAGCAAUAUUACGAGAU | -2.12 ± 0.12 | -1.99 ± 0.15
GUAAAGCAAUAUUACGAGCU | -1.4 ± 0.13 | -0.306 ± 0.18
GUAAAGCAAUAUUACGCAGC | -2.42 ± 0.22 | -1.25 ± 0.2
GUAAAGCAAUAUUACGCAUG | -1.15 ± 0.077 | -0.761 ± 0.1
GUAAAGCAAUAUUACGCCCA | 0.335 ± 0.062 | 0.419 ± 0.085
GUAAAGCAAUAUUACGCCCC | -0.801 ± 0.089 | -0.0225 ± 0.12
GUAAAGCAAUAUUACGCCCG | 0.162 ± 0.18 | -0.247 ± 0.19
GUAAAGCAAUAUUACGCGAA | -0.868 ± 0.08 | -1.25 ± 0.1
GUAAAGCAAUAUUACGCGGG | -1.74 ± 0.12 | -2.08 ± 0.19
GUAAAGCAAUAUUACGCUGC | -2.97 ± 0.24 | -1.97 ± 0.28
GUAAAGCAAUAUUACGGAUC | -0.198 ± 0.12 | 0.205 ± 0.15
GUAAAGCAAUAUUACGGCGG | -1.39 ± 0.1 | -1.76 ± 0.16

Sequence | self-splicing fitness (ln) (30 °C) | self-splicing fitness (ln) (37 °C)
GUAAAGCAAUAUUACGGGAA | -2.36 ± 0.11 | -0.287 ± 0.12
GUAAAGCAAUAUUACGGGGA | -2.91 ± 0.19 | -2.4 ± 0.21
GUAAAGCAAUAUUACGGGGC | -3.07 ± 0.23 | -2.29 ± 0.15
GUAAAGCAAUAUUACGGUCU | -0.245 ± 0.071 | 0.0323 ± 0.092
GUAAAGCAAUAUUACGGUGA | -0.896 ± 0.084 | -0.575 ± 0.1
GUAAAGCAAUAUUACGGUUU | -0.83 ± 0.055 | 0.0852 ± 0.077
GUAAAGCAAUAUUACGUACA | -0.0825 ± 0.078 | 0.111 ± 0.09
GUAAAGCAAUAUUACGUCGA | -0.947 ± 0.088 | -0.407 ± 0.1
GUAAAGCAAUAUUACGUGAA | -1.96 ± 0.1 | -1.39 ± 0.12
GUAAAGCAAUAUUACGUGAU | -2.02 ± 0.085 | -1.52 ± 0.12
GUAAAGCAAUAUUACGUUAA | -2 ± 0.093 | -1.69 ± 0.14
GUACAGCAAUAUUACGAAAA | -1.66 ± 0.19 | -2.31 ± 0.25
GUACAGCAAUAUUACGAAAC | -1.74 ± 0.1 | -0.531 ± 0.12
GUACAGCAAUAUUACGAAAU | -2.34 ± 0.12 | -0.906 ± 0.11
GUACAGCAAUAUUACGAACU | -0.664 ± 0.15 | -1.24 ± 0.2
GUACAGCAAUAUUACGAAUU | -2.29 ± 0.16 | -1.69 ± 0.15
GUACAGCAAUAUUACGACUG | -1.83 ± 0.13 | -1.33 ± 0.14
GUACAGCAAUAUUACGAGUC | -1.88 ± 0.085 | -1.53 ± 0.096
GUACAGCAAUAUUACGAUCU | -0.934 ± 0.087 | -0.527 ± 0.094
GUACAGCAAUAUUACGAUUA | -0.7 ± 0.095 | -0.556 ± 0.1
GUACAGCAAUAUUACGCAGA |  | -2.72 ± 0.2
GUACAGCAAUAUUACGCAUG | -2.26 ± 0.075 | -1.03 ± 0.08
GUACAGCAAUAUUACGCCAC | -1.49 ± 0.39 | 
GUACAGCAAUAUUACGCGUU | -2.61 ± 0.15 | -1.35 ± 0.14
GUACAGCAAUAUUACGGACA | -2.13 ± 0.12 | -1.13 ± 0.1

Sequence | self-splicing fitness (ln) (30 °C) | self-splicing fitness (ln) (37 °C)
GUACAGCAAUAUUACGGAGG | -3.92 ± 0.34 | -2.92 ± 0.44
GUACAGCAAUAUUACGGCCG | -1.89 ± 0.1 | -0.534 ± 0.13
GUACAGCAAUAUUACGGGCG | -2.46 ± 0.18 | -1.11 ± 0.15
GUACAGCAAUAUUACGGGUC | -4.33 ± 0.31 | -2.79 ± 0.33
GUACAGCAAUAUUACGGGUG | -2.02 ± 0.098 | -1.67 ± 0.13
GUACAGCAAUAUUACGGGUU | -3.13 ± 0.09 | -2.22 ± 0.099
GUACAGCAAUAUUACGGUGU | -3.2 ± 0.14 | -1.51 ± 0.13
GUACAGCAAUAUUACGGUUU | -0.599 ± 0.044 | -0.0338 ± 0.06
GUACAGCAAUAUUACGUAAG | -1.08 ± 0.096 | -0.465 ± 0.11
GUACAGCAAUAUUACGUAGA | -2.65 ± 0.11 | -1.35 ± 0.14
GUACAGCAAUAUUACGUAGU | -2.84 ± 0.11 | -2.08 ± 0.14
GUACAGCAAUAUUACGUCCU | -1.4 ± 0.12 | -0.91 ± 0.11
GUACAGCAAUAUUACGUGCU | -3.17 ± 0.18 | -3.14 ± 0.24
GUACAGCAAUAUUACGUGUC | -3.39 ± 0.2 | -2.06 ± 0.2
GUACAGCAAUAUUACGUUGG | -3.39 ± 0.21 | -2.16 ± 0.15
GUAGAGCAAUAUUACGACCU | -1.39 ± 0.15 | -0.95 ± 0.2
GUAGAGCAAUAUUACGACGC | -0.313 ± 0.16 | 0.929 ± 0.22
GUAGAGCAAUAUUACGAGAA | -3.8 ± 0.34 | -1.72 ± 0.47
GUAGAGCAAUAUUACGAUGA | -1.5 ± 0.1 | -0.479 ± 0.12
GUAGAGCAAUAUUACGAUGU | -1.04 ± 0.18 | -0.121 ± 0.19
GUAGAGCAAUAUUACGCCGU | -1.3 ± 0.33 | -0.778 ± 0.45
GUAGAGCAAUAUUACGCGAU | -3.22 ± 0.2 | 0.14 ± 0.16
